Here are results for three substances from paper PMC3139177.

The experiment has as its target Recombinant platelet-derived growth factor-BB (UniProt P01127). Kind of experiment: SPR.
UniProt P01127, sequence (P01127 82-190): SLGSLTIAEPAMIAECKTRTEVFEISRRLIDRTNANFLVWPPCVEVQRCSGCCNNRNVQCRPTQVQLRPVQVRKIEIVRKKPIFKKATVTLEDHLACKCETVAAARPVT

Usually Kd stands for the constant that tells how readily two partners part at equilibrium. For the substance “Recombinant fibronectin type III repeats 13–14 (domain or fragment)”, the Kd amounted to 9 nM. The result for “Recombinant fibronectin variable domain (domain or fragment)” reads 141 nM. Turning to “Recombinant fibronectin type III repeat 1 (domain or fragment)”, the Kd stood at 103 nM.
